Molecular target: trimeric PD-L1 trap (mouse) (UniProt Q02242)
Test: SDS-PAGE without reducing agent

trimeric PD-L1 trap (from UniProt Q02242 21-150; P51942 458-500) (designed binder)
stoichiometry N: 3
